Assays:
[1] = biological target: factor Va (UniProt P12259)
[2] = biological target: T1, factor Va, P12259
T1 chain 1: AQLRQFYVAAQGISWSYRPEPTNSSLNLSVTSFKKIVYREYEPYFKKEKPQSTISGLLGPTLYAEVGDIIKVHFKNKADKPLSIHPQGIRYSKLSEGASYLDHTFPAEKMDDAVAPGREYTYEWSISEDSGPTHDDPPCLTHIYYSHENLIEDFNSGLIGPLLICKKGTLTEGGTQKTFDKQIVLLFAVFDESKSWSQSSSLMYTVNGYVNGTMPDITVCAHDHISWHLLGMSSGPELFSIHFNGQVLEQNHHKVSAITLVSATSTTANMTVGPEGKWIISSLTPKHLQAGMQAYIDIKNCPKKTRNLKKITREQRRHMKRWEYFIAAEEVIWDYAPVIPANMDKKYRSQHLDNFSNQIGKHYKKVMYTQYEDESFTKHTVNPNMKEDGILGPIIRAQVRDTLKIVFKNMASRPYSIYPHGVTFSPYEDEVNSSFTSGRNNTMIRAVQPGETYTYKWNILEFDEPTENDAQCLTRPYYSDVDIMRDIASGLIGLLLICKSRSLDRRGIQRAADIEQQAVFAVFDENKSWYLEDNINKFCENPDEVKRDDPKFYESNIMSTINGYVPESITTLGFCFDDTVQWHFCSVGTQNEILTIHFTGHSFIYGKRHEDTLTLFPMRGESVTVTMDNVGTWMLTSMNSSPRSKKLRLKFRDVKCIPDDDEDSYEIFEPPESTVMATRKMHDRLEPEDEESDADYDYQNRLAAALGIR
T1 chain 2: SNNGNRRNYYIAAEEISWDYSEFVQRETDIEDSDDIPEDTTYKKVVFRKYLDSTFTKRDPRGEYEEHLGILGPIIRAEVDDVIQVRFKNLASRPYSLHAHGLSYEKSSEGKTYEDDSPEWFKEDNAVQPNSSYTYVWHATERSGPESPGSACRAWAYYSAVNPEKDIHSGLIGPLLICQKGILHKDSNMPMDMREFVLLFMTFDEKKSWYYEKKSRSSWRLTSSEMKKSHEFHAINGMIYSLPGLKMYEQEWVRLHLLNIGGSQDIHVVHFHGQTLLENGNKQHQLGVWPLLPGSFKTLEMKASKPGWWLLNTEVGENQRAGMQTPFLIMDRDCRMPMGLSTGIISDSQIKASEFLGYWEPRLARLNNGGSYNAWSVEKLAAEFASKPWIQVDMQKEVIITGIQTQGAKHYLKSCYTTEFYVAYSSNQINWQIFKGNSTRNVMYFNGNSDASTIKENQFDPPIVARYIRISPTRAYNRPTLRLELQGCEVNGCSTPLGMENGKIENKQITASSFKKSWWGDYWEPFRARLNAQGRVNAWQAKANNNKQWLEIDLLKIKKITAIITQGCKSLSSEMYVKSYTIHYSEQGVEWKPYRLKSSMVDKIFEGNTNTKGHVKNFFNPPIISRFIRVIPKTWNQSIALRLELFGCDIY

recombinant factor Xa variant Ile16→Gly
Km for peptidyl substrates after assembly into prothrombinase [1]: even the Km value for I235G was almost completely restored (3-fold increased compared to wild-type FXa) when assembled in prothrombinase

B1: recombinant factor Xa variant Val17→Ala (protein)
chain 1: ANSFLEEMKKGHLERECMEETCSYEEAREVFEDSDKTNEFWNKYKDGDQCETSPCQNQGKCKDGLGEYTCTCLEGFEGKNCELFTRKLCSLDNGDCDQFCHEEQNSVVCSCARGYTLADNGKACIPTGPYPCGKQTLER
chain 2: IAGGQECKDGECPWQALLINEENEGFCGGTILSEFYILTAAHCLYQAKRFKVRVGDRNTEQEEGGEAVHEVEVVIKHNRFTKETYDFDIAVLRLKTPITFRMNVAPACLPERDWAESTLMTQKTGIVSGFGRTHEKGRQSTRLKMLEVPYVDRNSCKLSSSFIITQNMFCAGYDTKQEDACQGDSGGPHVTRFKDTYFVTGIVSWGEGCARKGKYGIYTKVTAFLKWIDRSMKTRGLPKAKSHAPEVITSSPLK
Km for peptidyl substrates after assembly into prothrombinase [2]: the assembly of FXaI235L and FXaV236A into prothrombinase almost completely restored the Km for peptidyl substrates

— patent publication US8383386
